The text below walks through data of the supplement of paper PMC9112550, “Optimization of the antimicrobial peptide Bac7 by deep mutational scanning” (BMC Biology, 2022).

This data set concerns Escherichia coli TOP10. The data set can be described thus: shrunken log2 fold change of peptide-encoding DNA abundance (4.5 h post-induction vs induction); higher = less antimicrobial activity (less host growth inhibition). To be noted: time post-induction: 4.5 h; library: site-saturation at positions 5, 18, 19, 20.
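Further: peptides expressed intracellularly from a pBAD plasmid library in pooled LB shake-flask culture, induced with 0.3% L-arabinose, DNA abundance read by NGS, three biological replicates, DESeq2 with apeglm shrinkage.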

Consider RRIRQRPPRLPRPRPRPEATPRP, for which the “shrunken log2 fold change” value came out at 0.353.
Regarding RRIRFRPPRLPRPRPRPICRPRP, the “shrunken log2 fold change” value is -0.0837.
For RRIRHRPPRLPRPRPRPDDFPRP, the “shrunken log2 fold change” value was -0.198.
In the case of RRIRGRPPRLPRPRPRPMAQPRP, the “shrunken log2 fold change” value turned out to be 1.07.
Consider RRIRSRPPRLPRPRPRPWIHPRP, for which the “shrunken log2 fold change” value was -0.338.
Then RRIRARPPRLPRPRPRPYWKPRP, with -0.0819; and RRIRDRPPRLPRPRPRPSLPPRP, with -0.00636.
Next, RRIRCRPPRLPRPRPRPFCYPRP: -0.733.
Next, RRIRWRPPRLPRPRPRPTNPPRP: -0.0172; RRIRHRPPRLPRPRPRPYLNPRP: -1.2.
As to RRIRLRPPRLPRPRPRPTQWPRP, the “shrunken log2 fold change” value was 0.453.
For RRIRVRPPRLPRPRPRPVVVPRP, the “shrunken log2 fold change” value is -0.194.
Next, RRIRTRPPRLPRPRPRPPYVPRP: -0.212; RRIRRRPPRLPRPRPRPNMRPRP: 0.104.
With RRIRMRPPRLPRPRPRPSGTPRP, the “shrunken log2 fold change” value was 0.215.
Then RRIRPRPPRLPRPRPRPLGHPRP, with 0.163; and RRIRYRPPRLPRPRPRPCALPRP, with -0.671; and RRIRCRPPRLPRPRPRPVFPPRP, with -0.15.
Then RRIRNRPPRLPRPRPRPRPQPRP, with 0.339.
Next, RRIRGRPPRLPRPRPRPQYVPRP: -0.0061; RRIRFRPPRLPRPRPRPPWEPRP: 0.124; RRIRERPPRLPRPRPRPIWGPRP: -0.0579.
For RRIRGRPPRLPRPRPRPVLGPRP, the “shrunken log2 fold change” value worked out at 0.343.
Then RRIRHRPPRLPRPRPRPTRWPRP, with 0.137.
For the sequence RRIRLRPPRLPRPRPRPKFAPRP, the “shrunken log2 fold change” value is 0.293.
Next, RRIRFRPPRLPRPRPRPRLRPRP: 0.378; RRIRDRPPRLPRPRPRPYIFPRP: 3.58.
Then RRIRFRPPRLPRPRPRPTQYPRP, with -0.261; and RRIRPRPPRLPRPRPRPCDEPRP, with 0.0442; and RRIRGRPPRLPRPRPRPVHRPRP, with -0.0492.
Take RRIRKRPPRLPRPRPRPGVHPRP: the “shrunken log2 fold change” value worked out at 0.195.
Then RRIRLRPPRLPRPRPRPCVYPRP, with -0.352; and RRIRHRPPRLPRPRPRPPKQPRP, with -0.00419; and RRIRDRPPRLPRPRPRPSWDPRP, with 0.199.
Then RRIRGRPPRLPRPRPRPSQNPRP, with 0.229; and RRIRFRPPRLPRPRPRPWLCPRP, with -0.173; and RRIRTRPPRLPRPRPRPWCLPRP, with -0.596.
Then RRIRTRPPRLPRPRPRPKPSPRP, with 0.335; and RRIRCRPPRLPRPRPRPHNFPRP, with -1.01.
For the sequence RRIRARPPRLPRPRPRPSHAPRP, the “shrunken log2 fold change” value came out at 0.333.
Next, RRIRYRPPRLPRPRPRPMHCPRP: -0.0557.
For RRIRQRPPRLPRPRPRPHHKPRP, the “shrunken log2 fold change” value was -0.205.
Next, RRIRQRPPRLPRPRPRPITHPRP: -0.102.
For RRIRLRPPRLPRPRPRPPTYPRP, the “shrunken log2 fold change” value is -0.304.
As to RRIRWRPPRLPRPRPRPSVCPRP, the “shrunken log2 fold change” value amounted to 0.104.
Next, RRIRCRPPRLPRPRPRPEQWPRP: 0.594; RRIRSRPPRLPRPRPRPYQYPRP: -1.11.
Next, RRIRRRPPRLPRPRPRPWRHPRP: 0.0972.
Then RRIRFRPPRLPRPRPRPWYIPRP, with -0.623.
With RRIRRRPPRLPRPRPRPHKEPRP, the “shrunken log2 fold change” value is 0.0317.
Next, RRIRWRPPRLPRPRPRPGPDPRP: 0.533; RRIRYRPPRLPRPRPRPSQHPRP: -0.683; RRIRERPPRLPRPRPRPRLEPRP: -0.0353.
Next, RRIRLRPPRLPRPRPRPGSLPRP: -0.0743.
Next, RRIRSRPPRLPRPRPRPHIAPRP: -0.255.
For RRIRKRPPRLPRPRPRPPTRPRP, the “shrunken log2 fold change” value came to 1.49.
Then RRIRGRPPRLPRPRPRPHCKPRP, with 0.0392; and RRIRPRPPRLPRPRPRPTPRPRP, with 0.769.
Consider RRIRHRPPRLPRPRPRPEGHPRP, for which the “shrunken log2 fold change” value is 0.065.
Then RRIRQRPPRLPRPRPRPHQRPRP, with 0.153; and RRIRVRPPRLPRPRPRPKNEPRP, with 0.00832.
Next, RRIRSRPPRLPRPRPRPKYPPRP: -0.186.
Then RRIRSRPPRLPRPRPRPTHDPRP, with 0.221; and RRIRYRPPRLPRPRPRPCLCPRP, with -0.453.
For the sequence RRIRCRPPRLPRPRPRPQIFPRP, the “shrunken log2 fold change” value amounted to 2.2.
Then RRIRWRPPRLPRPRPRPHGDPRP, with 0.145; and RRIRDRPPRLPRPRPRPGNKPRP, with -0.0705; and RRIRFRPPRLPRPRPRPTLDPRP, with 0.0939.
With RRIRSRPPRLPRPRPRPWFVPRP, the “shrunken log2 fold change” value was -0.36.
As for RRIRNRPPRLPRPRPRPVQIPRP, the “shrunken log2 fold change” value is 0.00489.
Then RRIRSRPPRLPRPRPRPYAIPRP, with -0.228.
For RRIRWRPPRLPRPRPRPQEEPRP, the “shrunken log2 fold change” value is 0.0983.
For RRIRCRPPRLPRPRPRPWQLPRP, the “shrunken log2 fold change” value is -0.263.
Next, RRIRWRPPRLPRPRPRPTRVPRP: 0.825.
Then RRIRQRPPRLPRPRPRPGLWPRP, with 0.452; and RRIRVRPPRLPRPRPRPNACPRP, with 0.215; and RRIRCRPPRLPRPRPRPPTPPRP, with 0.776.
For the sequence RRIRIRPPRLPRPRPRPILWPRP, the “shrunken log2 fold change” value is -0.238.
Next, RRIRGRPPRLPRPRPRPLTQPRP: 0.594.
Next, RRIRIRPPRLPRPRPRPYFRPRP: -0.0907; RRIRPRPPRLPRPRPRPYWEPRP: -0.0429; RRIRSRPPRLPRPRPRPIENPRP: -0.00961.
Next, RRIRIRPPRLPRPRPRPLMTPRP: -0.233; RRIRSRPPRLPRPRPRPTEYPRP: -0.206; RRIRKRPPRLPRPRPRPVNNPRP: -0.241.
For RRIRIRPPRLPRPRPRPTVRPRP, the “shrunken log2 fold change” value worked out at 0.158.
Next, RRIRERPPRLPRPRPRPGCSPRP: -0.0673.
For RRIRWRPPRLPRPRPRPTDAPRP, the “shrunken log2 fold change” value is -0.0515.
For the sequence RRIRTRPPRLPRPRPRPRWTPRP, the “shrunken log2 fold change” value is -0.0339.
Next, RRIRLRPPRLPRPRPRPKNKPRP: -0.291.
Then RRIRARPPRLPRPRPRPRLYPRP, with 0.501; and RRIRGRPPRLPRPRPRPNIQPRP, with 0.398; and RRIRARPPRLPRPRPRPEYYPRP, with -0.059.
Then RRIRMRPPRLPRPRPRPFKSPRP, with -0.0472; and RRIRPRPPRLPRPRPRPLCHPRP, with -0.139.
On to RRIRYRPPRLPRPRPRPVFPPRP, for which the “shrunken log2 fold change” value was -0.0627.
Then RRIRIRPPRLPRPRPRPPHLPRP, with -0.14; and RRIRRRPPRLPRPRPRPCFEPRP, with 0.0864.
Next, RRIRVRPPRLPRPRPRPVWNPRP: 0.152; RRIRYRPPRLPRPRPRPDTCPRP: -0.233; RRIRCRPPRLPRPRPRPCVWPRP: -0.013.
With RRIRDRPPRLPRPRPRPRRNPRP, the “shrunken log2 fold change” value was 0.225.
Next, RRIRSRPPRLPRPRPRPHWRPRP: 0.39.
Then RRIRTRPPRLPRPRPRPFTEPRP, with -0.21.
For the sequence RRIRFRPPRLPRPRPRPRPRPRP, the “shrunken log2 fold change” value amounted to 1.65.
Then RRIRYRPPRLPRPRPRPGLKPRP, with -0.0239; and RRIRSRPPRLPRPRPRPNTEPRP, with 0.121; and RRIRGRPPRLPRPRPRPCNGPRP, with -0.199.
Next, RRIRSRPPRLPRPRPRPAIVPRP: 0.385.
With RRIRNRPPRLPRPRPRPPHMPRP, the “shrunken log2 fold change” value was -0.217.
As to RRIRRRPPRLPRPRPRPWVLPRP, the “shrunken log2 fold change” value was 0.0819.
Then RRIRKRPPRLPRPRPRPYYWPRP, with -0.281; and RRIRYRPPRLPRPRPRPTSEPRP, with -0.0408; and RRIRGRPPRLPRPRPRPCWVPRP, with -0.00887.
Next, RRIRFRPPRLPRPRPRPFWHPRP: 0.041.
Next, RRIRDRPPRLPRPRPRPEYMPRP: -0.00941; RRIRNRPPRLPRPRPRPSMYPRP: -0.309.
As to RRIRQRPPRLPRPRPRPLTNPRP, the “shrunken log2 fold change” value was -0.483.
Then RRIRSRPPRLPRPRPRPIKSPRP, with 0.041; and RRIRCRPPRLPRPRPRPQPAPRP, with 0.632.
Then RRIRARPPRLPRPRPRPFDIPRP, with -0.127.
Next, RRIRVRPPRLPRPRPRPAQAPRP: 0.74; RRIRNRPPRLPRPRPRPHVYPRP: -0.229; RRIRMRPPRLPRPRPRPAFSPRP: 0.0185.
With RRIRQRPPRLPRPRPRPWSYPRP, the “shrunken log2 fold change” value is -0.106.
